Measurements: paper PMC10786891, “Massively parallel profiling of RNA-targeting CRISPR-Cas13d”
Positions count from the first letter of the chain named. In names and notes the source's numbering stands.

T1: EsCas13d, nuclease-dead (Eubacterium siraeum, UniProt B0MS50, R295A;H300A;R849A;H854A)
T1 sequence: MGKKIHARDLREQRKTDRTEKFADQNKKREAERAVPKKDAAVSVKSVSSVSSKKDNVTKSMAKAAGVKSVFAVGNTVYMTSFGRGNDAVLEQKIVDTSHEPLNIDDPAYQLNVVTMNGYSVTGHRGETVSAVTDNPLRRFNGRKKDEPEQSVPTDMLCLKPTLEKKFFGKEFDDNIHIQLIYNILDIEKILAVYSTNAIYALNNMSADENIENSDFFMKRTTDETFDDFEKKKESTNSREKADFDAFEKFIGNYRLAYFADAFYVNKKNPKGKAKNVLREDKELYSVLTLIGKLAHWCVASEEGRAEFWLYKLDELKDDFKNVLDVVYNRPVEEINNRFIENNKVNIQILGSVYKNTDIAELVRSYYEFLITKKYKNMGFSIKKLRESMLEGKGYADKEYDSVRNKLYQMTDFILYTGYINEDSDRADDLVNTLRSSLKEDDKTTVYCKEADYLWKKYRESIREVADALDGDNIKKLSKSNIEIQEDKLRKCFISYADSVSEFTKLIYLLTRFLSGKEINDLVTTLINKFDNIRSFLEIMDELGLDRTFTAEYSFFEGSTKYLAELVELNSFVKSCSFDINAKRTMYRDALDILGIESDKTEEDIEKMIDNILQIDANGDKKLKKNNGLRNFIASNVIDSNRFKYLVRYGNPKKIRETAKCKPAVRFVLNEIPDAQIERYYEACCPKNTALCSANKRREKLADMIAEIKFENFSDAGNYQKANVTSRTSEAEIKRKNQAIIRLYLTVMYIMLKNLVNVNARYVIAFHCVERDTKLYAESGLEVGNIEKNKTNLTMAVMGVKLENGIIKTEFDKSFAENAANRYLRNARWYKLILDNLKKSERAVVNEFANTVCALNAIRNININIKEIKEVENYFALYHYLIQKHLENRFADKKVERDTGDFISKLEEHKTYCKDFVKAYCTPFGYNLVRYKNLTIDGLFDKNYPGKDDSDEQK

B1: target 2 MT 5'PFS GUA 3'PFS AUC (mixed)
RNA 1: CACCCGUGCAAAAUUGCAGGGGUCUAAAACCUUCUCCAAAUUGUUUCAUCCU
RNA 2: GGGAAUGGAUCCACAUCUACGAAUUCGUAAGGAUGAAACAAUUUGGAGAAGAUCAGAUCGGAAGAGCACACGU
B2: target 2 MT 5'PFS CUG 3'PFS UGC (mixed)
RNA 1: B1 RNA 1
RNA 2: B1 RNA 2 with G27C, A29G, A52U, U53G
B3: target 2 MT 5'PFS AAA 3'PFS UUU (mixed)
RNA 1: B1 RNA 1
RNA 2: B1 RNA 2 with G27A, U28A, A52U, C54U
B4: target 2 MT 5'PFS GCG 3'PFS UCG (mixed)
RNA 1: B1 RNA 1
RNA 2: B1 RNA 2 with U28C, A29G, A52U, U53C, C54G
B5: target 2 MT 5'PFS ACU 3'PFS ACC (mixed)
RNA 1: B1 RNA 1
RNA 2: B1 RNA 2 with G27A, U28C, A29U, U53C
B6: target 2 MT 5'PFS AUG 3'PFS CAA (mixed)
RNA 1: B1 RNA 1
RNA 2: B1 RNA 2 with G27A, A29G, A52C, U53A, C54A
B7: target 2 MT 5'PFS GUA 3'PFS AUU (mixed)
RNA 1: B1 RNA 1
RNA 2: B1 RNA 2 with C54U
B8: target 2 MT 5'PFS UCG 3'PFS CCG (mixed)
RNA 1: B1 RNA 1
RNA 2: B1 RNA 2 with G27U, U28C, A29G, A52C, U53C, C54G
B9: target 2 MT 5'PFS AAU 3'PFS CAA (mixed)
RNA 1: B1 RNA 1
RNA 2: B1 RNA 2 with G27A, U28A, A29U, A52C, U53A, C54A
B10: target 2 MT 5'PFS GAA 3'PFS AGU (mixed)
RNA 1: B1 RNA 1
RNA 2: B1 RNA 2 with U28A, U53G, C54U
B11: target 2 MT 5'PFS GCG 3'PFS UCU (mixed)
RNA 1: B1 RNA 1
RNA 2: B1 RNA 2 with U28C, A29G, A52U, U53C, C54U
B12: target 2 MT 5'PFS GAA 3'PFS AGG (mixed)
RNA 1: B1 RNA 1
RNA 2: B1 RNA 2 with U28A, U53G, C54G
B13: target 2 MT 5'PFS GAA 3'PFS AGC (mixed)
RNA 1: B1 RNA 1
RNA 2: B1 RNA 2 with U28A, U53G
B14: target 2 MT 5'PFS AGC 3'PFS CCG (mixed)
RNA 1: B1 RNA 1
RNA 2: B1 RNA 2 with G27A, U28G, A29C, A52C, U53C, C54G
B15: target 2 MT 5'PFS GAA 3'PFS AGA (mixed)
RNA 1: B1 RNA 1
RNA 2: B1 RNA 2 with U28A, U53G, C54A
B16: target 2 MT 5'PFS ACG 3'PFS CCG (mixed)
RNA 1: B1 RNA 1
RNA 2: B1 RNA 2 with G27A, U28C, A29G, A52C, U53C, C54G
B17: target 2 MT 5'PFS ACU 3'PFS ACA (mixed)
RNA 1: B1 RNA 1
RNA 2: B1 RNA 2 with G27A, U28C, A29U, U53C, C54A
B18: target 2 MT 5'PFS AAU 3'PFS CAC (mixed)
RNA 1: B1 RNA 1
RNA 2: B1 RNA 2 with G27A, U28A, A29U, A52C, U53A
B19: target 2 MT 5'PFS GUA 3'PFS AUG (mixed)
RNA 1: B1 RNA 1
RNA 2: B1 RNA 2 with C54G
B20: target 2 MT 5'PFS AUU 3'PFS CGU (mixed)
RNA 1: B1 RNA 1
RNA 2: B1 RNA 2 with G27A, A29U, A52C, U53G, C54U
B21: target 2 MT 5'PFS AGC 3'PFS CCA (mixed)
RNA 1: B1 RNA 1
RNA 2: B1 RNA 2 with G27A, U28G, A29C, A52C, U53C, C54A
B22: target 2 MT 5'PFS ACU 3'PFS ACG (mixed)
RNA 1: B1 RNA 1
RNA 2: B1 RNA 2 with G27A, U28C, A29U, U53C, C54G
B23: target 2 MT 5'PFS ACG 3'PFS CCA (mixed)
RNA 1: B1 RNA 1
RNA 2: B1 RNA 2 with G27A, U28C, A29G, A52C, U53C, C54A
B24: target 2 MT 5'PFS CCG 3'PFS CCC (mixed)
RNA 1: B1 RNA 1
RNA 2: B1 RNA 2 with G27C, U28C, A29G, A52C, U53C
B25: target 2 MT 5'PFS ACU 3'PFS ACU (mixed)
RNA 1: B1 RNA 1
RNA 2: B1 RNA 2 with G27A, U28C, A29U, U53C, C54U
B26: target 2 MT 5'PFS GCG 3'PFS UCA (mixed)
RNA 1: B1 RNA 1
RNA 2: B1 RNA 2 with U28C, A29G, A52U, U53C, C54A
B27: target 2 MT 5'PFS AAA 3'PFS UUA (mixed)
RNA 1: B1 RNA 1
RNA 2: B1 RNA 2 with G27A, U28A, A52U, C54A
B28: target 2 MT 5'PFS GCG 3'PFS UCC (mixed)
RNA 1: B1 RNA 1
RNA 2: B1 RNA 2 with U28C, A29G, A52U, U53C
B29: target 2 MT 5'PFS AUU 3'PFS UCG (mixed)
RNA 1: B1 RNA 1
RNA 2: B1 RNA 2 with G27A, A29U, A52U, U53C, C54G
B30: target 2 MT 5'PFS GCG 3'PFS AAG (mixed)
RNA 1: B1 RNA 1
RNA 2: B1 RNA 2 with U28C, A29G, U53A, C54G
B31: target 2 MT 5'PFS AUG 3'PFS CAU (mixed)
RNA 1: B1 RNA 1
RNA 2: B1 RNA 2 with G27A, A29G, A52C, U53A, C54U
B32: target 2 MT 5'PFS CUG 3'PFS UGU (mixed)
RNA 1: B1 RNA 1
RNA 2: B1 RNA 2 with G27C, A29G, A52U, U53G, C54U
B33: target 2 MT 5'PFS CCG 3'PFS CCU (mixed)
RNA 1: B1 RNA 1
RNA 2: B1 RNA 2 with G27C, U28C, A29G, A52C, U53C, C54U
B34: target 1 C2G,A9C (mixed)
RNA 1: CACCCGUGCAAAAAUGCAGGGGUCUAAAACUGAGCGGAUAACCUCUCUAUGG
RNA 2: GGGAAUGGAUCCACAUCUACGAAUUCGUACCAUAGAGAGGUUCUCCGCUGACCGAGAUCGGAAGAGCACACGU
B35: target 1 insU 3' of 2,insA 3' of 2 (mixed)
RNA 1: B34 RNA 1
RNA 2: GGGAAUGGAUCCACAUCUACGAAUUCGUACCAUAGAGAGGUUAUCCGCUCUAACCGAGAUCGGAAGAGCACACGU
B36: target 1 A1U,C2G (mixed)
RNA 1: B34 RNA 1
RNA 2: B34 RNA 2 with C43A, A51U
B37: target 1 insC 3' of 8,insG 3' of 8 (mixed)
RNA 1: B34 RNA 1
RNA 2: B35 RNA 2 with C46G, G47C, U49G, A52C

Target: T1, EsCas13d, nuclease-dead
Assay: crRNA (strand 1, pre-loaded); Mg2+; 40 mM Tris-HCl pH 7.5, 150 mM NaCl, 6 mM MgCl2, 1 mM DTT, 0.1% Tween-20, 0.2 mg/ml BSA; 25 C; 10 min per concentration, then washed
Details: tags: His6-TwinStrep-SUMO cleaved; N-terminal SNAP kept (SNAP-Surface 488); label: 3' end held by stalled T7 RNA polymerase

Binder	Kd
B1	8.9 ± 0.8 nM
B2	2.56 ± 0.25 nM
B3	23 ± 10 nM
B4	20 ± 4 nM
B5	9.3 ± 2.2 nM
B6	9 ± 1.4 nM
B7	6.8 ± 0.5 nM
B8	90 ± 40 nM
B9	4.3 ± 0.7 nM
B10	15.3 ± 2.4 nM
B11	31 ± 5 nM
B12	6.9 ± 0.7 nM
B13	6.3 ± 1.1 nM
B14	9.3 ± 1 nM
B15	5.4 ± 0.9 nM
B16	9.9 ± 1.5 nM
B17	4.2 ± 0.7 nM
B18	5.2 ± 1 nM
B19	7.8 ± 0.5 nM

Binder	Kd
B20	6.9 ± 0.9 nM
B21	78 ± 32 nM
B22	9.5 ± 2.5 nM
B23	19 ± 7 nM
B24	3.1 ± 0.5 nM
B25	7.3 ± 1.3 nM
B26	~37 nM
B27	5.6 ± 1.5 nM
B28	30 ± 5 nM
B29	7.8 ± 0.7 nM
B30	10.2 ± 1.5 nM
B31	7.6 ± 0.8 nM
B32	3.72 ± 0.32 nM
B33	8.4 ± 1.6 nM
B34	15 ± 1.2 nM
B35	10.9 ± 0.5 nM
B36	9.2 ± 0.8 nM
B37	10.6 ± 0.5 nM
